Here are results for 6 molecules from patent publication US20250074980A1 (BRIGHAM AND WOMEN S HOSPITAL, published 2025).

Assay [1] addresses T1, CEACAM6 on transfected HeLa cells (human, UniProt P40199 35-320).
T1 construct: whole, on cells; also called HeLa-CEACAM6; HeLa C6
T1 sequence (looked up): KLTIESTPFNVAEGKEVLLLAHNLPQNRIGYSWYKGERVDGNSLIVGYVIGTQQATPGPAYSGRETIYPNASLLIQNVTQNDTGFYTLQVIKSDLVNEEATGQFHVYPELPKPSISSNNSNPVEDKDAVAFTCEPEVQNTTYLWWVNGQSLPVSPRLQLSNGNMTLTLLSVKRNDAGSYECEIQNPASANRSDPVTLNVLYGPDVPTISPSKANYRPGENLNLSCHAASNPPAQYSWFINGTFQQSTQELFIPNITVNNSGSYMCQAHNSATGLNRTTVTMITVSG
The assay can be described thus: flow cytometry, HeLa-CEACAM6 transfectants, % positive cells. For orientation: In flow cytometry, cells or beads pass a laser one at a time.

Assay [2] concerns the target T2, His-tagged CEACAM1 (human, UniProt P13688 35-428).
T2 construct: 45 kDa SPR analyte; also called CEACAM1-HIS; CEACAM1 analyte
T2 sequence: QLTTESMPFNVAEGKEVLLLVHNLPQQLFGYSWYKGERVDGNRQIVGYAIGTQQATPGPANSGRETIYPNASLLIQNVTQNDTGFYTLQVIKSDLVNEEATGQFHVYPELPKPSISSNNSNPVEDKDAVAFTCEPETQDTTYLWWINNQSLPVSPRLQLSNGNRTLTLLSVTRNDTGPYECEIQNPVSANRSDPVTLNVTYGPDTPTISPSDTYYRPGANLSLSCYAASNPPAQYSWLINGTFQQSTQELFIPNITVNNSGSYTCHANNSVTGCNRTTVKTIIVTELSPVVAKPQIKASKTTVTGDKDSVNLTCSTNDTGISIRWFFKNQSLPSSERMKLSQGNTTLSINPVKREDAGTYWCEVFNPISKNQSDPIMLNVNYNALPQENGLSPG
The assay can be described thus: SPR single-cycle, IgG captured. The method in brief:
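Biacore T200 single-cycle kinetics at 25° C in HBS-P+ (pH 7.4): antibodies (purified or HEK EBNA supernatant, 1 μg/ml) captured on Protein A to ~75 RU, His-tagged CEACAM1 analyte at 3.125–50 nM (5-point 2-fold) at 50 μl/min without regeneration. Reference channel Fc1 subtracted.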

For assay [3], the target named is T3, CEACAM8 on transfected HeLa cells (human, UniProt P31997 35-320).
T3 construct: whole, on cells; also called HeLa-CEACAM8; HeLa C8
T3 sequence (looked up): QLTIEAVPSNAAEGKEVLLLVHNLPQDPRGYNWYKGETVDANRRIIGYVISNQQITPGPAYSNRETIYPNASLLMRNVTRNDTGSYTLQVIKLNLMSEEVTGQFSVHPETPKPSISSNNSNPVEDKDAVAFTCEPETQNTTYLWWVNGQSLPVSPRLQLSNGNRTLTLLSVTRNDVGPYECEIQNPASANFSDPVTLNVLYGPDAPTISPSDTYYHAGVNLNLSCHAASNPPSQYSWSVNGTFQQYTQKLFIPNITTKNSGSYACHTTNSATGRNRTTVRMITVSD
The assay can be described thus: flow cytometry, transfected HeLa. The method in brief: (§1)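 Flow cytometry on HeLa cells stably transfected with single CEACAM family members, cultured at 37° C, 5.0% CO₂ in DMEM with 10% fetal bovine serum. Cells were stained with test antibody, then a fluorochrome-conjugated isotype-specific secondary antibody, with DAPI as viability dye. Data were acquired on a Cytoflex and analysed in FlowJo. Binding selectivity is given as the staining of each transfectant.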

Assay [4] has as its target T4, CEACAM3 on transfected HeLa cells (human, UniProt P40198 35-252).
T4 construct: whole, on cells; also called HeLa-CEACAM3; HeLa C3
T4 sequence (looked up): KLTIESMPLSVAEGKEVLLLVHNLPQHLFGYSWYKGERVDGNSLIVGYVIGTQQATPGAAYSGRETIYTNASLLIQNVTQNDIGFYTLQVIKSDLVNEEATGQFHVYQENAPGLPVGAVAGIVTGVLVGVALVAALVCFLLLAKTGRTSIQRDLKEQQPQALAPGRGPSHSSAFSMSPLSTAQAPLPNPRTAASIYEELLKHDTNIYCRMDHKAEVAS
The assay can be described thus: flow cytometry, transfected HeLa. The method in brief:
as §1

Assay [5] has as its target T2, His-tagged CEACAM1. The assay can be described thus: SPR multi-cycle, IgG captured. As for the experimental part: As an alternative approach to assess the binding of the 36 antibody combinations and the three control antibodies to CEACAM1, a kinetic analysis was performed on a Biacore T200 (serial no. 1909913) running Biacore T200 Evaluation Software V2.0.1 (Uppsala, Sweden). All experiments were run at 25° C. with HBS-P+ running buffer (pH 7.4) (GE Healthcare, cat. no. BR100671). All kinetic experiments were performed using His-tagged CEACAM1 as the analyte. For all experiments, antibodies were immobilized onto a Series S Protein A sensor chip surface. For kinetic experiments, the amount of immobilized/captured ligand was limited to avoid mass transfer effects at the surface of the chip with the surface ideally having an analyte binding level (Rₘₐₓ) of 50-150 RUs. Using a MW of 45 kDa for the CEACAM1 analyte, 150 kDa for the antibody ligand (estimated value for IgG), 50 RU for Rmax and the stoichiometry (Sm) as 2 due to the ability of each antibody to bind 2 target molecules, a target response level of ˜75 RUs was set for capture of all the sample antibodies.
The signal from the reference channel Fc1 was subtracted from that of Fc2, Fc3 and Fc4 to correct for differences in non-specific binding to a reference surface, a global Rmax parameter was used in the 1-to-1 binding model. The relative Kp compared to […] was calculated by dividing the Kp of the humanized CEACAM antibody variants by that of the chimeric antibody VH0/Vκ0 on the same chip. A summary of the averaged relative Kp obtained for the 12 antibody combinations analyzed using multi cycle kinetics can be found in Table 5.

Another assay deals with T5, GST-CEACAM1 (human, UniProt P13688 35-141, limits assumed).
T5 construct: also called human CEACAM1-GST protein
T5 sequence: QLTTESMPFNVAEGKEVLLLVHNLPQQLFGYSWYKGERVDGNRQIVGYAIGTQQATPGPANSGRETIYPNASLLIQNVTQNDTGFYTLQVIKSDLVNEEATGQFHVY
The assay can be described thus: competition ELISA vs parental murine antibody. As for the experimental part:
The binding of the purified antibodies to human CEACAM1 was assessed in a competition ELISA assay. Nunc Immuno MaxiSorp 96 well flat bottom microtitre plates were pre-coated with 1 μg/ml of GST-CEACAM1 in 1×PBS, overnight at 4° C. The following day the plates were blocked for 1 hour at room temperature (“RT”) with 2% BSA/PBS before washing 3× with PBST pH 7.4. A 3-fold dilution series of the chimeric antibody chimeric antibody VH0/Vκ0, an irrelevant IgG4 antibody, and the humanized CEACAM1 antibodies from 100 μg/ml to 0.07 or 0.002 μg/ml were pre-mixed with a constant concentration of parental murine antibody (0.45 μg/ml final concentration), added to the plate and incubated for 1 hour at room temperature. Following 3×PBST washes, the binding of the parental murine CEACAM1 antibody was detected with an anti-mouse-HRP and TMB substrate. The reaction was stopped with 3 M HCl, absorbance read at 450 nm on a Dynex Technologies MRX TC II plate reader and the binding curves plotted. The binding of the humanized CEACAM antibody variants to CEACAM1 was compared to the chimeric antibody (VHO/Vκ0), which was included on each plate.
Background: An ELISA detects its analyte on a solid surface through an enzyme-linked reagent.

Several values for one entry are separate records, joined by “and”; a condition that tells them apart may be missing. Equal values may be shown once.

B1: VH2/Vκ8 (antibody, IgG4, V domains shown)
VH: EVQLLESGGGLVQPGGSLRLSCAASGFIFSSHGMSWVRQAPGKGLEWVATISSGGTYTYYPDSVKGRFTISRDNSKNTLYLQMNSLRAEDTAMYYCARHDFDYDAAWFAYWGQGTLVTVSS
VL: EIVLTQSPATLSLSPGERATLSCRANSSVSYMYWYQQKPGQAPRPWIYLTSNRATGVPARFSGSGSGTDYTLTISSLEPEDFAVYYCQQWSSNPPTFGQGTKLEIK
notes: IgG4 (S241P), kappa
The Kd is the concentration at which binding is half-saturated. Usually koff stands for the first-order rate constant of dissociation. The kon is the rate constant with which the complex forms. B1: the binding result in assay [1] was “no binding”. For the same molecule, in the assay with His-tagged CEACAM1 [2], the Kd was determined as 125 nM and the “relative KD to VH0/Vκ0” value came out at 3. Further, in assay [3], the binding result was “no binding”. For the same molecule, the binding result in assay [4] was “no binding”. For the same molecule, in the assay with His-tagged CEACAM1 [5], the equilibrium dissociation constant (Kd) is 125 nM, the “average relative KD to VH0/Vκ0” value stood at 2.3, the koff is 0.0417 s⁻¹ and the association rate constant (kon) stood at 334000 M⁻¹ s⁻¹. Moreover, in the assay with His-tagged CEACAM1 [5], the “relative KD to VH0/Vκ0” value came to 2.3.

B2: VH2/Vκ3 (antibody, IgG4, V domains shown)
VH: EVQLLESGGGLVQPGGSLRLSCAASGFIFSSHGMSWVRQAPGKGLEWVATISSGGTYTYYPDSVKGRFTISRDNSKNTLYLQMNSLRAEDTAMYYCARHDFDYDAAWFAYWGQGTLVTVSS
VL: EIVLTQSPATLSLSPGERATLSCRANSSVSYMAWYQQKPGQAPRPWIYLTSNRATGVPARFSGSGSGTDYTLTISSLEPEDFATYYCQQWSSNPPTFGQGTKLEIK
notes: IgG4 (S241P), kappa
In the case of B2, in the assay with GST-CEACAM1, the binding result is “no binding (tested: 100 µg/ml)”.

B3: VH2/Vκ9 (antibody, IgG4, V domains shown)
VH: EVQLLESGGGLVQPGGSLRLSCAASGFIFSSHGMSWVRQAPGKGLEWVATISSGGTYTYYPDSVKGRFTISRDNSKNTLYLQMNSLRAEDTAMYYCARHDFDYDAAWFAYWGQGTLVTVSS
VL: EIVLTQSPATLSLSPGERATLSCRANSSVSYMYWYQQKPGQAPRPLIYLTSNRATGVPARFSGSGSGTDYTLTISSLEPEDFATYYCQQWSSNPPTFGQGTKLEIK
notes: IgG4 (S241P), kappa
Take B3: the binding result in assay [1], in assay [3] and in assay [4] was “no binding” in each case. Also, the Kd was 110 nM in the assay with His-tagged CEACAM1 [2]; 96 nM and 75 nM in the assay with His-tagged CEACAM1 [5]. Further, the “relative KD to VH0/Vκ0” value in the assay with His-tagged CEACAM1 [2] came to 2.7. For the same molecule, the “average relative KD to VH0/Vκ0” value with His-tagged CEACAM1 [5] worked out at 1.9.

B4: VH2/Vκ10 (antibody, IgG4, V domains shown)
VH: EVQLLESGGGLVQPGGSLRLSCAASGFIFSSHGMSWVRQAPGKGLEWVATISSGGTYTYYPDSVKGRFTISRDNSKNTLYLQMNSLRAEDTAMYYCARHDFDYDAAWFAYWGQGTLVTVSS
VL: EIVLTQSPATLSLSPGERATLSCRANSSVSYMYWYQQKPGQAPRPWIYLTSNRATGIPARFSGSGSGTDFTLTISSLEPEDFATYYCQQWSSNPPTFGQGTKLEIK
notes: IgG4 (S241P), kappa
On to B4, for which the binding result in assay [1] is “no binding”. Besides, in the assay with His-tagged CEACAM1 [2], the dissociation constant (Kd) was 131 nM and the “relative KD to VH0/Vκ0” value stood at 3.2. Besides, the binding result in assay [3] was “no binding”. In addition, the binding result in assay [4] is “no binding”. Also, in the assay with His-tagged CEACAM1 [5], the Kd was found to be 61 nM, the “average relative KD to VH0/Vκ0” value worked out at 2.1, the koff came to 0.0246 s⁻¹ and the on-rate constant (kon) worked out at 407000 M⁻¹ s⁻¹. For the same molecule, in the assay with His-tagged CEACAM1 [5], the “relative KD to VH0/Vκ0” value was 2.1.

B5: VH2/Vκ12 (antibody, IgG4, V domains shown)
VH: EVQLLESGGGLVQPGGSLRLSCAASGFIFSSHGMSWVRQAPGKGLEWVATISSGGTYTYYPDSVKGRFTISRDNSKNTLYLQMNSLRAEDTAMYYCARHDFDYDAAWFAYWGQGTLVTVSS
VL: EIVLTQSPATLSLSPGERATLSCRANSSVSYMYWYQQKPGQAPRPLIYLTSNRATGIPARFSGSGSGTDYTLTISSLEPEDFATYYCQQWSSNPPTFGQGTKLEIK
notes: IgG4 (S241P), kappa
In the case of B5, in assay [1], the binding result is recorded as “no binding”. Moreover, in the assay with His-tagged CEACAM1 [2], the Kd was determined as 145 nM and the “relative KD to VH0/Vκ0” value worked out at 3.5. In assay [3], the binding result was “no binding”. Besides, the binding result in assay [4] is listed as “no binding”. Also, in the assay with His-tagged CEACAM1 [5], the Kd stood at 152 nM, the “average relative KD to VH0/Vκ0” value came out at 2.7, the koff is 0.0458 s⁻¹ and the on-rate (kon) was 302000 M⁻¹ s⁻¹. The “relative KD to VH0/Vκ0” value with His-tagged CEACAM1 [5] was determined as 2.7.

B6: VH2/Vκ11 (antibody, IgG4, V domains shown)
VH: EVQLLESGGGLVQPGGSLRLSCAASGFIFSSHGMSWVRQAPGKGLEWVATISSGGTYTYYPDSVKGRFTISRDNSKNTLYLQMNSLRAEDTAMYYCARHDFDYDAAWFAYWGQGTLVTVSS
VL: EIVLTQSPATLSLSPGERATLSCRANSSVSYMYWYQQKPGQAPRPWIYLTSNRATGIPARFSGSGSGTDYTLTISSLEPEDFAVYYCQQWSSNPPTFGQGTKLEIK
notes: IgG4 (S241P), kappa
Regarding B6, the binding result in assay [1] is recorded as “no binding”. In the assay with His-tagged CEACAM1 [2], the Kd is 122 nM and the “relative KD to VH0/Vκ0” value stood at 3. Further, in assay [3], the binding result is “no binding”. Besides, the binding result in assay [4] was “no binding”. Also, in the assay with His-tagged CEACAM1 [5], the Kd stood at 77 nM, the “average relative KD to VH0/Vκ0” value came to 2.7, the koff is 0.0289 s⁻¹ and the on-rate constant (kon) stood at 375000 M⁻¹ s⁻¹. Besides, the “relative KD to VH0/Vκ0” value with His-tagged CEACAM1 [5] came out at 2.5.
